The values below come from paper PMC8857484.

The stoichiometry N is the number of molecules, sites or subunits per partner or assembly.

Common to all, as to assay: cross-linking; in vivo cysteine cross-linking with 180 μM aldrithiol-4, 20 min, 37 °C, in SUKO HEK-293T cells expressing single-cysteine STIM1 with or without UNC93B1-FLAG-MYC, treated or not with 0.5 μM thapsigargin for 5 min; non-reducing electrophoresis, blot with anti-STIM1
Test [1] has as its target STIM1-A230C (cysteine-less STIM1 with a single cysteine at residue 230, TM region) (UniProt Q13586).
Test [2] has as its target STIM1-L251C (cysteine-less STIM1 with a single cysteine at residue 251, CC1 domain) (UniProt Q13586).
For test [3], the target named is STIM1-M241C (cysteine-less STIM1 with a single cysteine at residue 241, juxtamembrane region) (UniProt Q13586).

Substance “STIM1-A230C (cysteine-less STIM1 with a single cysteine at residue 230, TM region) (from UniProt Q13586 23-685) (natural protein)” showed a stoichiometry N in test [1] of 2.

The substance “STIM1-L251C (cysteine-less STIM1 with a single cysteine at residue 251, CC1 domain) (from UniProt Q13586 23-685) (natural protein)” returned a stoichiometry N in test [2] of 2. As to “STIM1-M241C (cysteine-less STIM1 with a single cysteine at residue 241, juxtamembrane region) (from UniProt Q13586 23-685) (natural protein)”, in test [3], the stoichiometry N came to 2.
